Publication PMC5405867

How the values were obtained:
[1] = target: murine USP18^IBB-1-USP7, His6-tagged (mouse) (UniProt Q9WTV6)
ISG15 (Mus musculus) = ISG15 (Mus musculus) (UniProt Q64339); assay: microscale thermophoresis; conditions: cited from earlier work
Sequence of ISG15 (Mus musculus) (Q64339 1-155): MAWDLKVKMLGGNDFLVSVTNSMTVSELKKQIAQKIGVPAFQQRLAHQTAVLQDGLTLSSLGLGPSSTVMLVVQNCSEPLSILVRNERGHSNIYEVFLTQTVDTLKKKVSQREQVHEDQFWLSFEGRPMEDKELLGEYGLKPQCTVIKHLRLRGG

| catalytic activity towards ISG15-FP, percent of wild type (% of wt activity) [1] | Substance | Kd (ISG15 (Mus musculus)) |
| --- | --- | --- |
| 0.5 | mouse ISG15 (residues 1-155, C76S) (from UniProt Q64339 1-155) (natural protein) | – |
| – | USP18 (from UniProt Q9WTV6) | 1.3 µM |
